Results reported in patent US12391768B2, “Antibodies to ticagrelor and methods of use” (MEDIMMUNE LIMITED, priority 2014, dated 2025).
Each block holds one molecule with its values, some of them ahead of it.

Columns and labels:
TICA0212 Fab = assay: HTRF competition binding selectivity assay, TICA0212 His-Fab; parameters: species or system human; conditions: Table 7, DMSO normalised; 5 nM biotinylated ticagrelor, 1 nM His Fab; read-out: IC50 (uM) for inhibition of biotinylated ticagrelor binding to TICA0212 Fab
Description: Total Binding control wells were set up which contained all of the assay components above except that 5 ul assay buffer was added in place of the test selectivity compound addition. Negative Binding control wells were set up which contained all of the assay components included in the Total Binding control wells except that 5ul assay buffer was added in place of the His-Fab addition. Test compound serial titrations were either ½ or ⅓ depending on the particular experiment and top final assay compound concentrations were optimized on a compound specific basis. The concentration of biotinylated ticagrelor and His-Fab was optimized on a Fab specific basis in separate experiments. For the four Fabs investigated at the end of the lead isolation phase (TICA0010, TICA0049, TICA0053 and TICA0072) the final assay reagent concentrations used are set out in Table 1 below:
For the two Fabs investigated at the end of the lead optimization phase (TICA0162 and TICA0212) the final assay reagent concentrations used were 5nM biotinylated ticagrelor and 1 nM His Fab in both cases. […] At the end of the set up procedure that assay was incubated for 3hrs at RT before being read on an Envision plate reader using a standard read protocol. […]

[1] = parameters: species or system mice; conditions: mouse, in vivo
Description: The method was optimized based on a previous published method [Sillen H., et al., J Chromatogr B Analyt Technol Biomed Life Sci. 2011 Aug. 1; 879(23): 2315-22]. Dialysis membranes (Spectrum Laboratories, Inc) which allows molecules with a mass below 6 to 8 kDa to pass through, was soaked in ELGA water for 10 to 15 min and placed between the dialysis plate halves (in house made). Plasma, 130 μL, was added to one side of the dialysis plate and 130 μL phosphate buffer, pH 7.0, was added to the opposite side. The wells on both sides were sealed with lids and aluminum plates were put on top on each side of the plate to avoid leakage. The plate was then placed vertical on an orbital shaker at 100 rpm/min at 37° C. for 24 h. The dialysis was terminated by transferring of 50 μL retentate from plasma side and 75 μL dialysate from buffer side to a protein LoBind PCR clean 96 deep-well plate containing 150 μL respective 75 μL internal standard (D7-ZD6140) in acetonitrile. The plate was mixed for 1 min and then centrifuged for 20 min, 1500× g at 4° C. After centrifugation 50 μL supernatant from the precipitated retentate was transferred and diluted with 50 μL ELGA H2O before LC-MS/MS (Acquity Ultra Performance LC coupled to a Xevo TQ-S mass spectrometer, Waters) analysis. No quality control samples were used in the analysis. […]

[2] = target: TICA0159 IgG binding to biotinylated ticagrelor; assay: Second generation HTRF epitope competition assay
Description: Purified parent TICA0072 (scFv or Fab) was used as a benchmark in all experiments such that improvements in IC50 measured with optimized variants (scFv or Fab) could be expressed as fold improvements over parent TICA0072. Total Binding Control Wells contained all assay components except that 5 ul assay buffer was added in place of the purified scFv or Fab sample. Negative Binding control wells contained all of the components of the Total Binding control wells except that 5 ul of assay buffer was added in place of the TICA0072 IgG.
In both single point HTS and multipoint IC50 profiling versions of the assay. plates were incubated for 3 hrs at RT before being read on an Envision plate reader using a standard HTRF read protocol in which samples are excited at 337 nm and time resolved fluorescence emission is measured at both 620 nm and 665 nM.
Raw 665 nm and 620 nm counts were used to calculate Delta F (%) and % Specific Binding according to the equations described earlier in Assays 1 and 4, respectively. For multipoint secondary profiling experiments IC50 values were determined using Graphpad Prism software using sigmoidal dose response (variable slope) curve fitting (4 parameter logistic equation).
This assay was used only in multipoint IC50 profiling format (as opposed to HTS format) and was performed essentially identically to the method given in Assay 5 (above) for multipoint IC50 profiling of purified Fab variants in the parent TICA0072 IgG based epitope competition assay. The only difference being that TICA0159 IgG was used in place of TICA0072 IgG at the appropriate point in the assay set up but at the same 16nM final assay concentration. In all other respects this assay was performed exactly as described above in the multipoint secondary profiling version for purified Fab.

IC50 (TICA0212 Fab): 0.035 µM | mean free plasma concentration of ticagrelor [1]: 4.7 nM
Molecule: CCCSc1nc(N[C@@H]2C[C@H]2c2ccc(F)c(F)c2)c2nnn([C@@H]3C[C@H](OCCO)[C@@H](O)[C@H]3O)c2n1 [Ticagrelor, (1S,2S,3R,5S)-3-[7-{[(1R,2S)-2-(3,4-difluorophenyl)cyclopropyl]amino}-5-(propylthio)-3H-[1,2,3]triazolo[4,5-d]pyrimidin-3-yl]-5-(2-hydroxyethoxy)cyclopentane-1,2-diol]

B1: TICA0212: combination of TICA0162 and TICA0152; VH SEQ ID NO:72, VL SEQ ID NO:77 (antibody, listed as Homo sapiens, V domains shown)
VH: QVQLQESGAEVKKPGSSVRVSCKASGGTFDSYSIHWVRQAPGQGLEWMGGIIPAFGTLSSAQDFQARVTISADKSTSTAYMELSGLRSEDTAVYYCARGSFDYYFWSASHPPNDALAIWGQGTLVTVSS
VL: QSVVTQPPSVSAAPGQKVTISCSGSNSDIGNNYVSWYQQLPGTAPKLLIYDNNKRPSGIPDRFSGSKSGTSATLAITGLQAGDEADYYCGTWLYDRAVGLFGGGTKVTVL
IC50 ([2]; Fab, 16 nM TICA0159 IgG, 1 nM biotinylated ticagrelor): 12 nM | Fold Improved ([2]; IC50 relative to parent TICA0072 Fab): 142.8 | improvement in IC50 relative to the parent TICA0072 Fab ([2]; second generation epitope competition assay): approximately 2 log
